One assay concerns the target HLA-B*44:02. The assay is described as follows: IEDB peptide-MHC binding, purified MHC/competitive/radioactivity; filed as Kd, often an IC50 or EC50 that approximates it; ≥ and ≤ were set here for values at or beyond the usual limits of such assays.
In a further assay the target is HLA-A*30:01. The assay is described as above.
The target in assay [1] is HLA-A*11:01. Described as above. The note with it: source organism: Dengue virus 1 Brazil/97-11/1997.
The next assay addresses HLA-A*03:01. The assay is described as above. The note with it: source organism: Dengue virus 1 Brazil/97-11/1997.
Another assay has as its target HLA-A*30:02. The description is as above.
For a further assay, the target named is HLA-A*01:01. Described as above.
For assay [2], the target named is HLA-A*11:01. The assay is described as follows: IEDB peptide-MHC binding, purified MHC/direct/fluorescence; filed as Kd, often an IC50 or EC50 that approximates it; ≥ and ≤ were set here for values at or beyond the usual limits of such assays. The note with it: source organism: Yellow fever virus.
Assay [3] concerns the target HLA-A*26:01. The assay is described as follows: IEDB peptide-MHC binding, purified MHC/competitive/radioactivity; filed as Kd, often an IC50 or EC50 that approximates it; ≥ and ≤ were set here for values at or beyond the usual limits of such assays.
The next assay concerns the target HLA-A*24:02. The description is as above. The note with it: source organism: Dengue virus 1 Singapore/S275/1990.
In another assay the target is HLA-A*23:01. The assay is described as above. The note with it: source organism: Dengue virus 1 Singapore/S275/1990.
Assay [4] deals with HLA-A*26:01. The assay is described as follows: IEDB peptide-MHC binding, purified MHC/direct/fluorescence; filed as Kd, often an IC50 or EC50 that approximates it; ≥ and ≤ were set here for values at or beyond the usual limits of such assays. The note with it: source organism: Mycobacterium tuberculosis.
The next assay has as its target HLA-B*44:03. The assay is described as follows: IEDB peptide-MHC binding, purified MHC/competitive/radioactivity; filed as Kd, often an IC50 or EC50 that approximates it; ≥ and ≤ were set here for values at or beyond the usual limits of such assays.
A further assay concerns the target HLA-B*07:02. The assay is described as follows: IEDB peptide-MHC binding, purified MHC/direct/fluorescence; filed as Kd, often an IC50 or EC50 that approximates it; ≥ and ≤ were set here for values at or beyond the usual limits of such assays.
The next assay concerns the target HLA-B*15:01. The assay is described as above.
A further assay has as its target HLA-B*58:01. Described as above. To be noted: source organism: Homo sapiens.
For a further assay, the target named is HLA-A*69:01. The assay is described as above. The note with it: source organism: Homo sapiens.
Setting [5] is: source organism: Dengue virus 2 Jamaica/1409/1983.
[6] abbreviates: source organism: Dengue virus 1 Brazil/97-11/1997.
Setting [7] is: source organism: Vaccinia virus WR.
[8] abbreviates: source organism: Dengue virus 4 Philippines/H241/1956.
Setting [9] is: source organism: Dengue virus 3 Martinique/1243/1999.
The mark [10] stands for this setting: source organism: Mammarenavirus juninense.
[11] abbreviates: source organism: Human immunodeficiency virus type 1 (STRAIN UGANDAN / ISOLATE U455).
[12] abbreviates: source organism: Mammarenavirus guanaritoense.

In the case of TEKDSPVNI, the Kd with HLA-B*44:02 (setting [5]) was 587 nM.

For the sequence SILLSSLLK, the Kd in the assay with HLA-A*30:01 (setting [6]) was found to be 2140 nM; with HLA-A*11:01 [1] it was 19.3 nM; with HLA-A*03:01, 8.01 nM.

Take HAVYSIVFV: the equilibrium dissociation constant (Kd) with HLA-A*30:01 (setting [7]) was determined as 591 nM. Turning to ALGKSEFQIY, the Kd is not below 69700 nM with HLA-A*30:02 (setting [5]) and 1540 nM in the assay with HLA-A*01:01 (setting [5]). For LFVVTLIPLC, the Kd in the assay with HLA-A*30:01 (setting [8]) was determined as 414 nM. Consider HIFYQLANV, for which the Kd with HLA-A*30:01 (setting [7]) worked out at 60.4 nM. On the same count and under the same terms, the value for GSRVRNIIA was 8.85 nM.

In the assay with HLA-A*11:01 [2], RMGERQLQK came in with a dissociation constant Kd of 29.5 nM.

As to STTEAILPEY, the figures for the Kd with HLA-A*30:02 (setting [9]), in the assay with HLA-A*26:01 [3] (setting [9]) and in the assay with HLA-A*01:01 (setting [9]) were not below 61200 nM, 48 nM and 232 nM, respectively. In the case of VYPLSIPATL, the dissociation constant Kd with HLA-A*24:02 turned out to be 111 nM; with HLA-A*23:01, 15.3 nM. With KSLYSHQLV, the dissociation constant (Kd) with HLA-A*30:01 (setting [7]) is 12.3 nM. For the sequence EVSTAIAAL, in the assay with HLA-A*26:01 [4], the Kd was found to be 12.2 nM. In the case of FVTLITGNM, in the assay with HLA-A*26:01 [3] (setting [5]), the dissociation constant Kd is 1390 nM.

Take YVVIGLLFM: in the assay with HLA-A*26:01 [3] (setting [6]), the dissociation constant Kd came out at 12500 nM. As to HVYDFEPYY, the dissociation constant Kd with HLA-A*30:01 (setting [7]) is 27.4 nM. Still for that read-out and setting: in the case of RTRDLFIAL it was 0.108 nM. Regarding QEKGKSLLF, the dissociation constant Kd with HLA-B*44:02 (setting [5]) was 52.7 nM; with HLA-B*44:03 (setting [5]), 1140 nM. Consider KQKMGPIYA, for which, in the assay with HLA-A*30:01 (setting [7]), the Kd amounted to 21.7 nM. Same read-out and setting: in the case of RYRCSFAVA it was 0.00377 nM. On to ITEAELTGY, for which the equilibrium dissociation constant (Kd) with HLA-A*30:02 (setting [5]) came to 9.47 nM; with HLA-A*26:01 [3] (setting [5]), 8270 nM.

Consider LTLTAAVLML, for which, in the assay with HLA-A*01:01 (setting [6]), the Kd was 6160 nM. For the sequence LYIKDIFTR, the Kd was not below 76900 nM in the assay with HLA-A*30:02 (setting [10]), not below 77900 nM in the assay with HLA-A*26:01 [3] (setting [10]) and not below 78100 nM with HLA-A*01:01 (setting [10]).

In the case of KAELEEGVY, the Kd in the assay with HLA-A*30:02 (setting [9]) was not below 52800 nM. As to NEMGLIEKT, the Kd with HLA-B*44:03 (setting [8]) is 2000 nM.

As to GEKALKLSW, the equilibrium dissociation constant (Kd) with HLA-B*44:02 (setting [6]) was 39.7 nM; in the assay with HLA-B*44:03 (setting [6]) it was 40.2 nM. As to YVKFIYFIK, in the assay with HLA-A*30:01 (setting [7]), the dissociation constant Kd is 60 nM. With HPDIVIYQY, the Kd came to 13000 nM in the assay with HLA-B*07:02 (setting [11]) and 1510 nM in the assay with HLA-B*15:01 (setting [11]). Turning to GHHTNFESF, the figures for the equilibrium dissociation constant (Kd) in the assay with HLA-A*30:02 (setting [12]) and with HLA-A*26:01 [3] (setting [12]) were 3830 nM and not below 77900 nM, respectively. KEGTFHTMW: the equilibrium dissociation constant (Kd) came out at 102 nM with HLA-B*44:02 (setting [5]) and 47 nM with HLA-B*44:03 (setting [5]).

On to ESQMLIPKAY, for which the dissociation constant Kd with HLA-A*30:02 (setting [8]) is 8.93 nM; in the assay with HLA-A*01:01 (setting [8]), not below 39300 nM.

LIDGISLGL: the dissociation constant Kd with HLA-A*01:01 (source organism: Dengue virus 4 Dominica/814669/1981) was found to be 10400 nM.

VGYVDDTQF: the equilibrium dissociation constant (Kd) with HLA-B*07:02 (source organism: Homo sapiens) came to 6180 nM; with HLA-B*58:01, 210 nM; in the assay with HLA-B*15:01 (source organism: Homo sapiens), 572 nM. Regarding RPASAGAML, the dissociation constant (Kd) was determined as 34 nM with HLA-B*07:02 (source organism: Homo sapiens) and 8380 nM with HLA-A*69:01. Consider NQRETTVVW, for which the equilibrium dissociation constant (Kd) in the assay with HLA-B*15:01 (source organism: Pseudomonas aeruginosa) came to 133 nM.

Take RFLTIPPTA: the Kd with HLA-A*30:01 (setting [5]) stood at 60.5 nM. With HETGRLEPSW, the dissociation constant Kd in the assay with HLA-B*44:02 (setting [8]) is not below 70200 nM; with HLA-B*44:03 (setting [8]), 188 nM.

Turning to QKATLTEGVY, in the assay with HLA-A*30:02 (setting [8]), the equilibrium dissociation constant (Kd) turned out to be 15.6 nM.

(Values after the Immune Epitope Database (IEDB).)
